Consider 21 molecules from US20220088148A1 (HANMI PHARM, published 2022).

Bridges are numbered along the chain shown (N, C = ends). Where no end group is shown, it is not given here. [ ]: non-standard residue; d: D form. The star is where a group is joined. Acetyl(2-(4-imidazolyl)) = O=C(Cc1c[nH]cn1)*; Aib = CC(C)(N)C(=O)O

What all share (experiment): cell-based or functional assay
One experiment addresses human GCG receptor (human, UniProt P47871 26-477).
Another experiment has as its target human GLP-1 receptor (human, UniProt P43220 24-463).
A further experiment deals with T1, human GIP receptor (human, UniProt P48546 22-466).
T1 sequence (looked up): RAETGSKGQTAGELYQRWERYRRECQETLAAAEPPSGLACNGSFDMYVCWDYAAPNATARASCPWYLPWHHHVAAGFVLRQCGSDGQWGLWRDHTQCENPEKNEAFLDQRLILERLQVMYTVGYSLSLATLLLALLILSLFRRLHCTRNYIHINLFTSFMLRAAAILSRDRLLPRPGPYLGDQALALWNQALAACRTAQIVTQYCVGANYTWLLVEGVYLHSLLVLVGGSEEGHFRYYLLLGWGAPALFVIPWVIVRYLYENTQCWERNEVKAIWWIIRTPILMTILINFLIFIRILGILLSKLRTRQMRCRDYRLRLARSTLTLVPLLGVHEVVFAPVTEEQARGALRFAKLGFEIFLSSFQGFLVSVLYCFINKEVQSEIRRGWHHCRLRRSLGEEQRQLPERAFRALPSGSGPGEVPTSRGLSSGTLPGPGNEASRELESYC

human GCG receptor, sequence (P47871 26-477): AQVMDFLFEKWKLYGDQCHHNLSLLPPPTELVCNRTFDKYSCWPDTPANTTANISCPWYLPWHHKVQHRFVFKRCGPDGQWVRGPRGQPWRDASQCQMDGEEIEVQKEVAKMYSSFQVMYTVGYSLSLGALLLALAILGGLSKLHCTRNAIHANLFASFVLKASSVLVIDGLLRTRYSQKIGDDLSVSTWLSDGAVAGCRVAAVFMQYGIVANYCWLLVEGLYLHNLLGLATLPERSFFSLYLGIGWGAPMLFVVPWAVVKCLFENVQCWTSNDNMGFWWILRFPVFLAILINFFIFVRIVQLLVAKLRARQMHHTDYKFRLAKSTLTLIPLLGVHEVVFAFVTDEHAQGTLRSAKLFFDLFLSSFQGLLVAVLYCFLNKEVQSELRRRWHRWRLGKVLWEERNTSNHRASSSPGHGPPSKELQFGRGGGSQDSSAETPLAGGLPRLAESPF

As for {Acetyl(2-(4-imidazolyl))}-[Aib]QGTFTSDYSKCLDEKRAKEFVQWLLDHHPSSGQPPPS (bridge 15-19) [triple agonist of SEQ ID NO: 74], the “In vitro activity (%) vs. Glucagon, cAMP EC50” value in the experiment with human GCG receptor was determined as 0.9%. The “In vitro activity (%) vs. GLP-1, cAMP EC50” value with human GLP-1 receptor is 12.9%. Further, in the experiment with human GIP receptor, the “In vitro activity (%) vs. GIP, cAMP EC50” value is 1%.

For the molecule Y[Aib]QGTFTSDYSKYLDECRAKDFVQWLLDHHPSSGQPPPS (bridge 16-20; ends not checked) [triple agonist of SEQ ID NO: 66], the “In vitro activity (%) vs. Glucagon, cAMP EC50” value in the experiment with human GCG receptor was 172%. The “In vitro activity (%) vs. GLP-1, cAMP EC50” value in the experiment with human GLP-1 receptor is 15.8%. Further, the “In vitro activity (%) vs. GIP, cAMP EC50” value with human GIP receptor is 17.2%.

Turning to {Acetyl(2-(4-imidazolyl))}-[Aib]QGTFTSDYSKYLDEKRQKEFVQWLLNTC (bridge 15-19) [triple agonist of SEQ ID NO: 81], in the experiment with human GCG receptor, the “In vitro activity (%) vs. Glucagon, cAMP EC50” value worked out at 0.3%. Besides, the “In vitro activity (%) vs. GLP-1, cAMP EC50” value in the experiment with human GLP-1 receptor amounted to 7.8%. Also, in the experiment with human GIP receptor, the “In vitro activity (%) vs. GIP, cAMP EC50” value is < 0.1%.

As for H[Aib]QGTFTSDVSKYLDGQAAQEFVAWLLKGC [triple agonist of SEQ ID NO: 8], the “In vitro activity (%) vs. Glucagon, cAMP EC50” value with human GCG receptor amounted to 0.1%. In the experiment with human GLP-1 receptor, the “In vitro activity (%) vs. GLP-1, cAMP EC50” value was 14.2%. Besides, the “In vitro activity (%) vs. GIP, cAMP EC50” value in the experiment with human GIP receptor was < 0.1%.

As for H[Aib]EGTFTSDYSIAMDEIHQKDFVDWLLAEKC (bridge 16-20) [triple agonist of SEQ ID NO: 80], in the experiment with human GCG receptor, the “In vitro activity (%) vs. Glucagon, cAMP EC50” value stood at 0%. Further, the “In vitro activity (%) vs. GLP-1, cAMP EC50” value with human GLP-1 receptor came out at 8.1%. For the same molecule, in the experiment with human GIP receptor, the “In vitro activity (%) vs. GIP, cAMP EC50” value was found to be 0.1%.

On to Y[Aib]QGTFTSDYSKCLDEKAAKEFVQWLLDHHPSSGQPPPS (bridge 16-20; ends not checked) [triple agonist of SEQ ID NO: 68], for which, in the experiment with human GCG receptor, the “In vitro activity (%) vs. Glucagon, cAMP EC50” value is 8.8%. In addition, in the experiment with human GLP-1 receptor, the “In vitro activity (%) vs. GLP-1, cAMP EC50” value came out at 27.9%. Moreover, in the experiment with human GIP receptor, the “In vitro activity (%) vs. GIP, cAMP EC50” value came to 107%.

Consider [Acetyl(2-(4-imidazolyl))][Aib]QGTFTSDYSIAMDEIHQKDFVNWLLAQC (bridge 16-20) [triple agonist of SEQ ID NO: 85], for which the “In vitro activity (%) vs. Glucagon, cAMP EC50” value with human GCG receptor was < 0.1%. Also, the “In vitro activity (%) vs. GLP-1, cAMP EC50” value with human GLP-1 receptor amounted to 4.3%. Also, the “In vitro activity (%) vs. GIP, cAMP EC50” value with human GIP receptor stood at 0.3%.

Take [Acetyl(2-(4-imidazolyl))][Aib]EGTFTSDYSIAMDEIHQKDFVNWLLAQC (bridge 16-20) [triple agonist of SEQ ID NO: 83]: the “In vitro activity (%) vs. Glucagon, cAMP EC50” value with human GCG receptor is 1.3%. In addition, in the experiment with human GLP-1 receptor, the “In vitro activity (%) vs. GLP-1, cAMP EC50” value worked out at 47.3%. The “In vitro activity (%) vs. GIP, cAMP EC50” value in the experiment with human GIP receptor amounted to 0.4%.

For Y[Aib]QGTFTSDYSKCLDERAAKEFVQWLLDHHPSSGQPPPS (bridge 16-20; ends not checked) [triple agonist of SEQ ID NO: 69], the “In vitro activity (%) vs. Glucagon, cAMP EC50” value with human GCG receptor is 9.6%. In the experiment with human GLP-1 receptor, the “In vitro activity (%) vs. GLP-1, cAMP EC50” value stood at 24.3%. In addition, in the experiment with human GIP receptor, the “In vitro activity (%) vs. GIP, cAMP EC50” value worked out at 62.8%.

With [Acetyl(2-(4-imidazolyl))][Aib]QGTFTSDYSKYLDECRAKEFVQWLLDHHPSSGQPPPS (bridge 16-20; ends not checked) [triple agonist of SEQ ID NO: 73], the “In vitro activity (%) vs. Glucagon, cAMP EC50” value with human GCG receptor turned out to be 5.4%. Moreover, the “In vitro activity (%) vs. GLP-1, cAMP EC50” value with human GLP-1 receptor came out at 22.6%. Moreover, the “In vitro activity (%) vs. GIP, cAMP EC50” value in the experiment with human GIP receptor was 3%.

Turning to {Acetyl(2-(4-imidazolyl))}-[Aib]EGTFTSDYSIAMDEIHQKDFVDWLLAEC (bridge 15-19) [triple agonist of SEQ ID NO: 84], the “In vitro activity (%) vs. Glucagon, cAMP EC50” value in the experiment with human GCG receptor was < 0.1%. For the same molecule, the “In vitro activity (%) vs. GLP-1, cAMP EC50” value with human GLP-1 receptor amounted to 4.2%. In the experiment with human GIP receptor, the “In vitro activity (%) vs. GIP, cAMP EC50” value was < 0.1%.

In the case of {Acetyl(2-(4-imidazolyl))}-[Aib]QGTFTSDYSKYLDEKRQKEFVQWLLDTC (bridge 15-19) [triple agonist of SEQ ID NO: 82], the “In vitro activity (%) vs. Glucagon, cAMP EC50” value with human GCG receptor was 1.1%. In the experiment with human GLP-1 receptor, the “In vitro activity (%) vs. GLP-1, cAMP EC50” value turned out to be 9.5%. For the same molecule, in the experiment with human GIP receptor, the “In vitro activity (%) vs. GIP, cAMP EC50” value is < 0.1%.

Consider H[Aib]EGTFTSDYSIAMDEIHQKDFVNWLLAQKC (bridge 16-20) [triple agonist of SEQ ID NO: 79], for which, in the experiment with human GCG receptor, the “In vitro activity (%) vs. Glucagon, cAMP EC50” value came to 4.9%. Moreover, the “In vitro activity (%) vs. GLP-1, cAMP EC50” value in the experiment with human GLP-1 receptor came to 41.5%. The “In vitro activity (%) vs. GIP, cAMP EC50” value with human GIP receptor is 1.4%.

As to H[Aib]QGTFTSDYSKYLDEKRQKEFVQWLLDTKC (bridge 16-20) [triple agonist of SEQ ID NO: 78], the “In vitro activity (%) vs. Glucagon, cAMP EC50” value with human GCG receptor worked out at 14%. Further, in the experiment with human GLP-1 receptor, the “In vitro activity (%) vs. GLP-1, cAMP EC50” value is 51%. For the same molecule, the “In vitro activity (%) vs. GIP, cAMP EC50” value with human GIP receptor amounted to 0.12%.

Regarding Y[Aib]QGTFTSDYSKYLDEKAAKDFVQWLLDHHPSSGQPPPSC (bridge 16-20) [triple agonist of SEQ ID NO: 77], the “In vitro activity (%) vs. Glucagon, cAMP EC50” value with human GCG receptor stood at 12.2%. In addition, the “In vitro activity (%) vs. GLP-1, cAMP EC50” value with human GLP-1 receptor amounted to 38.7%. In the experiment with human GIP receptor, the “In vitro activity (%) vs. GIP, cAMP EC50” value was determined as 35.5%.

For the molecule Y[Aib]QGTFTSDYSKYLDEKAAKEFVQWLLDHHPSSGQPPPSC (bridge 16-20) [triple agonist of SEQ ID NO: 75], in the experiment with human GCG receptor, the “In vitro activity (%) vs. Glucagon, cAMP EC50” value amounted to 8.5%. For the same molecule, the “In vitro activity (%) vs. GLP-1, cAMP EC50” value in the experiment with human GLP-1 receptor was 35.1%. The “In vitro activity (%) vs. GIP, cAMP EC50” value with human GIP receptor is 18%.

As to H[Aib]QGTFTSDVSKYLDGQAAQEFVAWLLAGC [triple agonist of SEQ ID NO: 9], the “In vitro activity (%) vs. Glucagon, cAMP EC50” value in the experiment with human GCG receptor was found to be 0.13%. Further, in the experiment with human GLP-1 receptor, the “In vitro activity (%) vs. GLP-1, cAMP EC50” value was determined as 32.1%. For the same molecule, the “In vitro activity (%) vs. GIP, cAMP EC50” value in the experiment with human GIP receptor is < 0.1%.

Consider Y[Aib]QGTFTSDYSKYLDERACKDFVQWLLDHHPSSGQPPPS (bridge 16-20; ends not checked) [triple agonist of SEQ ID NO: 71], for which the “In vitro activity (%) vs. Glucagon, cAMP EC50” value with human GCG receptor is 12.7%. Besides, in the experiment with human GLP-1 receptor, the “In vitro activity (%) vs. GLP-1, cAMP EC50” value stood at 90.1%. Moreover, the “In vitro activity (%) vs. GIP, cAMP EC50” value with human GIP receptor worked out at 94.7%.

Take Y[Aib]QGTFTSDCSKYLDERAAKDFVQWLLDHHPSSGQPPPS (bridge 16-20; ends not checked) [triple agonist of SEQ ID NO: 72]: the “In vitro activity (%) vs. Glucagon, cAMP EC50” value with human GCG receptor amounted to 1%. For the same molecule, the “In vitro activity (%) vs. GLP-1, cAMP EC50” value in the experiment with human GLP-1 receptor stood at 11.5%. Further, the “In vitro activity (%) vs. GIP, cAMP EC50” value with human GIP receptor turned out to be 1.6%.

For the molecule Y[Aib]QGTFTSDYSKCLDEKRAKDFVQWLLDHHPSSGQPPPS (bridge 16-20; ends not checked) [triple agonist of SEQ ID NO: 70], the “In vitro activity (%) vs. Glucagon, cAMP EC50” value with human GCG receptor amounted to 71.3%. Further, the “In vitro activity (%) vs. GLP-1, cAMP EC50” value in the experiment with human GLP-1 receptor is 15.1%. The “In vitro activity (%) vs. GIP, cAMP EC50” value with human GIP receptor turned out to be 64.4%.

Consider Y[Aib]QGTFTSDYSKYLDEKRAKDFVQWLLDHHPSSGQPPPSC (bridge 16-20) [triple agonist of SEQ ID NO: 76], for which, in the experiment with human GCG receptor, the “In vitro activity (%) vs. Glucagon, cAMP EC50” value was 47.6%. In addition, in the experiment with human GLP-1 receptor, the “In vitro activity (%) vs. GLP-1, cAMP EC50” value was 10.3%. Also, the “In vitro activity (%) vs. GIP, cAMP EC50” value in the experiment with human GIP receptor came out at 11.7%.
